Laboratory results reported in US20250333496A1 (Novo Nordisk, published 2025).
Residue numbers refer to the chain shown, from its start. Values joined by “and” are separate entries in the source; they are usually repeats but may differ in a detail not shown here. Equal entries are not always repeated.

Experiments:
[1] = molecular target: T1, human IL-6 (mature hIL-6) (human, UniProt P05231 30-212); test: cell-based or functional assay
[2] = molecular target: T1, human IL-6 (mature hIL-6); test: cell-based or functional assay; remark: listed apart in the source
[3] = molecular target: T2, recombinant human HPC4-tagged IL-6 (human, UniProt P05231 30-212); test: SPR, HPC4-IL-6 captured on anti-HPC4 antibody, VHH injected, 25 C, 1:1 model
T2 construct: captured on an anti-HPC4 antibody in SPR; also called HPC4-human IL6
T2 sequence (P05231 other isoform, or with tags, fused parts or gaps limits assumed): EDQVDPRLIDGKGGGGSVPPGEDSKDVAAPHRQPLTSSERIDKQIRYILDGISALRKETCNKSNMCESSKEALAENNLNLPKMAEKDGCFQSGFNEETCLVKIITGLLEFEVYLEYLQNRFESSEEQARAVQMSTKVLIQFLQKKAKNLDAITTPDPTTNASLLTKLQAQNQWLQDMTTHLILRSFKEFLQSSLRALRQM
Description: Binding of purified anti-IL-6 VHHs to recombinant human HPC4-tagged IL-6 (SEQ ID NO: 98) was probed by Surface Plasmon Resonance (SPR).
IL-6 was captured at a flow rate of 10 μL/min for 30 seconds.
Subsequently, concentration series of VHH polypeptides according to Table 33 were injected at a flow rate of 50 μL/min for 200 seconds to allow for binding to […] followed by 600 seconds running buffer (10 mM HEPES, 150 mM NaCl, 5 mM CaCl₂, 0.05% (v/v) Surfactant P20, 1 mg/mL bovine serum albumin, pH 7.4) injection allowing dissociation from IL-6. The running buffer was also used for dilution of anti-IL-6 VHHs and IL-6. Regeneration of the chip was achieved using a regeneration buffer consisting of 50 mM EDTA in running buffer without CaCl₂, 30 seconds contact time, and a 30 μL/min flow rate applied twice to the surface. The binding data were collected at 25° C. at either a Biacore instrument (Cytiva AB, Uppsala) or a Bruker SPR32 (Bruker Daltonics). Data were analysed according to a 1:1 model using either BiaEvaluation or Biacore Insight Evaluation (Cytiva AB, Uppsala) or Bruker Analyser (Bruker Daltonics).

T1 sequence (P05231 30-212): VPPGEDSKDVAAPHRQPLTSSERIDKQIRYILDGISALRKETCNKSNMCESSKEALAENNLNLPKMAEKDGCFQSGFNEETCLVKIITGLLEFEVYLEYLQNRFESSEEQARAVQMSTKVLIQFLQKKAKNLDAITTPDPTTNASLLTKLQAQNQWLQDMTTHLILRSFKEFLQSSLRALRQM

B1: Polypeptide_51 (VHH)
VHH: EVQLVESGGGWVQPGGSLKLSCTTSGRRFSEYAVGWFRQAPGKEREFVADIGEQAENTWYAESVLGRFTISRDDAKNTVYLEMDGLKPEDTAVYYCAADKYGVGGNAQGYYDSWGQGTQVTVSS
In the case of B1, the “IC50 (nM), STAT3-luc reporter gene assay” value [1] is reported as 0.053 nM and the “Relative IC50 to Reference Polypeptide_29” value (shortened to “Relative IC50”) [1] is reported as 1.5 fold.

B2: Polypeptide_52 (VHH)
VHH: B1 VHH with W11L, R28T
For B2, the “IC50 (nM), STAT3-luc reporter gene assay” value [1] was 0.055 nM and the “Relative IC50” value [1] was 1.6 fold.

B3: Polypeptide_53 (VHH)
VHH: B1 VHH with W11L, E31S
For B3, the “IC50 (nM), STAT3-luc reporter gene assay” value [1] was 0.05 nM and the “Relative IC50” value [1] was 1.5 fold.

B4: Polypeptide_54 (VHH)
VHH: B1 VHH with W11L, Q54N
In the case of B4, the “IC50 (nM), STAT3-luc reporter gene assay” value [1] is reported as 0.15 nM and the “Relative IC50” value [1] is reported as 4.4 fold.

B5: Polypeptide_55 (VHH)
VHH: B1 VHH with W11L, E56D
For B5, the “IC50 (nM), STAT3-luc reporter gene assay” value [1] was 0.278 nM and the “Relative IC50” value [1] was 8.1 fold.

B6: Polypeptide_56 (VHH)
VHH: B1 VHH with W11L, E62H
For B6, the “IC50 (nM), STAT3-luc reporter gene assay” value [1] was 0.168 nM and the “Relative IC50” value [1] was 4.9 fold.

B7: Polypeptide_57 (VHH)
VHH: B1 VHH with W11L, L65K
In the case of B7, the “IC50 (nM), STAT3-luc reporter gene assay” value [1] is reported as 0.08 nM and the “Relative IC50” value [1] is reported as 2.3 fold.

B8: Polypeptide_58 (VHH)
VHH: B1 VHH with W11L, D74N
In the case of B8, the “IC50 (nM), STAT3-luc reporter gene assay” value [1] is reported as 0.047 nM and the “Relative IC50” value [1] is reported as 1.4 fold.

B9: Polypeptide_59 (VHH)
VHH: B1 VHH with W11L, D84N
B9 was tested, and the “IC50 (nM), STAT3-luc reporter gene assay” value [1] was 0.043 nM and the “Relative IC50” value [1] was 1.2 fold.

B10: Polypeptide_60 (VHH)
VHH: B1 VHH with W11L, G85S
B10 was tested, and the “IC50 (nM), STAT3-luc reporter gene assay” value [1] was 0.057 nM and the “Relative IC50” value [1] was 1.7 fold.

B11: Polypeptide_61 (VHH)
VHH: B1 VHH with W11L, K100S
For B11, the “IC50 (nM), STAT3-luc reporter gene assay” value [1] was 0.054 nM and the “Relative IC50” value [1] was 1.6 fold.

B12: Polypeptide_62 (VHH)
VHH: B1 VHH with W11L, N106G
B12 was tested, and the “IC50 (nM), STAT3-luc reporter gene assay” value [1] was 0.13 nM and the “Relative IC50” value [1] was 3.8 fold.

B13: Compound 1 (VHH)
VHH: QLQLVESGGGWVQPGGSLQLSCTTSGRTFSSYAVGWFRQAPGQEREFVADIGENADNTWYAHSVKGRFTISRDNAKNTVYLQMDSLKPEDTAVYYCAADSYGVGGGAQGYYDSWGQGTQVTVSS
modifications: Chem. 24 (C16 diacid substituent) on Cys in position 4 and on Cys in position 6 of the extension (SEQ ID NO: 72)
notes: Polypeptide derivative; extension E2 at the C-terminus of the VHH; also called VHH_1.12-E2 with 2x Chem. 24
In the case of B13, the “IC 50 (nM), reporter gene assay, 0% HSA” value [2] is reported as 0.029 nM, the “IC 50 (nM), reporter gene assay, 1% HSA” value [2] is reported as 0.06 nM and the Kd [3] is reported as 0.0637 nM and 0.0454 nM. For the same binder, the koff [3] was 0.000364 s⁻¹ and 0.000371 s⁻¹ and the kon [3] was 5.67e+06 M⁻¹ s⁻¹ and 8.18e+06 M⁻¹ s⁻¹.

B14: Compound 12 (VHH)
VHH: EVQLVESGGGLVQPGGSLQLSCAASGFTFSNYWMYWVRQAPGQGLEWVSGINTGGSTPDYADSVKGRFAISRDNAKNTLYLQMDSLRPEDTAVYYCAADTPRVFRLDHYSPLGQGTQVTVSS
modifications: Chem. 24 (C16 diacid substituent) on Cys in position 4 and on Cys in position 6 of the extension (SEQ ID NO: 72)
notes: Polypeptide derivative; extension E2 at the C-terminus of the VHH; also called VHH_1.17-E2 with 2x Chem. 24
With B14 the “IC 50 (nM), reporter gene assay, 1% HSA” value [2] was 0.021 nM, the Kd [3] was 0.0543 nM and the koff [3] was 0.000216 s⁻¹. The kon [3] was 7.36e+06 M⁻¹ s⁻¹.

B15: Compound 2 (VHH)
VHH: EVQLVESGGGLVQAGGSLQLSCTASGGTFSEYAMAWFRQAPGQEREFVTDIGESGGTWYADSVKGRFTISRDNAKNTVYLQMDSLRPEDTAVYYCAADSYGVGGGAERYYDSWGQGTQVTVSS
modifications: Chem. 24 (C16 diacid substituent) on Cys in position 4 and on Cys in position 6 of the extension (SEQ ID NO: 72)
notes: Polypeptide derivative; extension E2 at the C-terminus of the VHH; also called VHH_1.13-E2 with 2x Chem. 24
In the case of B15, the “IC 50 (nM), reporter gene assay, 0% HSA” value [2] is reported as 0.065 nM, the “IC 50 (nM), reporter gene assay, 1% HSA” value [2] is reported as 0.041 nM and the Kd [3] is reported as 0.0523 nM. The koff [3] was 0.000348 s⁻¹ and the kon [3] was 6.66e+06 M⁻¹ s⁻¹.

B16: Polypeptide_46 (VHH)
VHH: B1 VHH with E1Q, V2L, K19Q, K43Q, E62H, D74E, E82Q, G85S
In the case of B16, the “IC 50 (nM), reporter gene assay, 0% HSA” value [2] is reported as 0.021 nM.

B17: Compound 3 (VHH)
VHH: B1 VHH with E1Q, V2L, K19Q, K43Q, E62H, D74E, E82Q, G85S
modifications: Chem. 24 (C16 diacid substituent) on Cys in position 4 and on Cys in position 6 of the extension (SEQ ID NO: 72); found mass includes position 1 Gln to pyroGlu formation
With B17 the “IC 50 (nM), reporter gene assay, 0% HSA” value [2] was 0.029 nM and the “IC 50 (nM), reporter gene assay, 1% HSA” value [2] was 0.029 nM.
